Source: patent US20240084044A1, “Heteromultivalent Nucleic Acid Scaffolds and Uses Thereof” (George Mason University, priority 2022, published 2024)
Values joined by “and” are separate entries in the source; they are usually repeats but may differ in a detail not shown here. Identical values can stand only once. Bridges are numbered along the chain shown (N, C = ends). Roman numbers before positions name the chains, in order.

Target: T1, ST2/IL-33 binary complex (Homo sapiens, UniProt O95760+Q01638)
T1 construct: included the extracellular domains, K19-F328 and S21-E359, respectively; the cleaved mature proteins, S112-T270, A117-S269, and R2-S310, respectively; purchased Sino Biologicals ST2 10105-HCCH; IL-33 10368-HNAE; host or cells: ST2: HEK293; IL-33: E. coli
T1 sequence (Q01638 19-328 isoform Q01638-2): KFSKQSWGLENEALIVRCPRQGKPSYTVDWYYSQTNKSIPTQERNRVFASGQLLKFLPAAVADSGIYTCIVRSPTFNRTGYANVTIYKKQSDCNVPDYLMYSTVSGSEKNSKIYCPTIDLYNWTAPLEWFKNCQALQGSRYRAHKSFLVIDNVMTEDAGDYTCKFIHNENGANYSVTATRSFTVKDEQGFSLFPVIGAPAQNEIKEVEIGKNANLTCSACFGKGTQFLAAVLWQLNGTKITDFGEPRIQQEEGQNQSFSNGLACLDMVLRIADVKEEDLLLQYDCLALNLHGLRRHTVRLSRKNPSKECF
T1 sequence (O95760 112-270): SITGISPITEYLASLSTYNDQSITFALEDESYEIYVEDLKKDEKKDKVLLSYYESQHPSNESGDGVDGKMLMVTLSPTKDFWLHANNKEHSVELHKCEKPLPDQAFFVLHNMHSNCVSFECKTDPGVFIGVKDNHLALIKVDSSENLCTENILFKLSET
Experiment: SPR dissociation constant for the ST2/IL-33 binary complex
Format: binding
Description: Recombinant ST2 with truncated FLAG (DDDDK) tag (Cat. #10105-HCCH), His-tagged IL1RAcP (Cat. #10121-H08H), IL-33 (Cat. #10368-HNAE), IL-1β (Cat. #10139-HNAE), and FLAG-tagged SIRT5 (Cat. #19202-H22E) were purchased from Sino Biologicals (Wayne, PA). ST2 and IL1RAcP were expressed in HEK293 cells and included the extracellular domains, K19-F328 and S21-E359, respectively. IL-33, IL-1β, and SIRT5 were expressed in E. coli and included the residue sequence of the cleaved mature proteins, S112-T270, A117-S269, and R2-S310, respectively. Lyophilized ST2, and IL1RAcP were reconstituted in ultrapure (18.5 MΩ) water to a concentration of 0.5 mg/mL (5.6 μM) and stored at −80° C. until use. SIRT5 was reconstituted to 0.2 mg/mL (2.87 μM). To prevent oxidation, IL-33 was reconstituted in 10 mM β-mercaptoethanol (Sigma-Aldrich) to a concentration of 0.1 mg/mL and IL-1β was reconstituted to 0.250 mg/mL. All peptides were purchased from Peptide 2.0 (Chantilly, VA) and designed based on IL1RAcP hotspot residues known to interact with IL-33/ST2 and surrounding residues based on the canonical sequence of IL1RAcP (Uniprot #Q9NPH3). All peptides were modified with acetylated N-terms and amidated C-terms to optimize stability and cyclic peptides cyclized via thioether or disulfide bond. Candidate peptides for the final molecule were also modified with an azido-Lysine and additional N-term alanine or cysteine, to provide the azide group for copper free click chemistry and maintain cyclization. Peptides were stored at −20° C. in lyophilized aliquots of 100 μg or 200 μg and −80° C. after reconstitution in sterile DMSO to a concentration of 10 mM.
SPR experiments were carried out on an OpenSPR instrument (Nicoya). Gold nanoparticle sensor chips (Nicoya) were functionalized by incubation in a solution of ethanol and 10 mM 11-Mercaptoundecanoic acid (MUDA) at RT for a minimum of 48 h, then stored in ethanol at 4° C. until use. Chips were activated with a solution of 200 mM EDC and 50 mM NHS for 3 m at RT. […] Data was analyzed with TraceDrawer software to a 1:1 fit model.

increase in affinity compared to the individual peptides and IL-1RAcP (SPR KD comparison): ~100 fold and 100 fold
Kd (SPR, 1:1 fit, read-out: KD (affinity) to the binary ST2/IL-33 complex): 195 nM and < 200 nM
Substance: MSTOP: 3WJ DNA scaffold whose three DBCO staple strands carry cyclized azidolysine IL-1RAcP hotspot peptides; decoy for IL-33/ST2 (peptide 1 Ac-CKEYGIQRITC-NH2; peptide 2 Ac-AKVGSPKNAVPPC-NH2; peptide 3 Ac-CKGEVAKAAKVKC-NH2; disulfide I:1-I:11, III:1-III:13; thioether II:1-II:13; not fully specified (some residues); also: three peptides held on a 3-way junction DNA scaffold via DBCO staple strands)
